This note sets out measurements from publication PMC8230603, “Rad52 Oligomeric N-Terminal Domain Stabilizes Rad51 Nucleoprotein Filaments and Contributes to Their Protection against Srs2”.

The target in this data set is Rad52-FLAG (Saccharomyces cerevisiae, UniProt P06778 1-471). In words: EMSA; 5 mM MgCl2; 10 mM Tris-HCl pH 8, 5 mM MgCl2, 100 mM NaCl, 37 °C, 10 min; 0.27 µM Cy5-DNA (nt per Fig 6 legend); 8% native PAGE. Particulars: protein: recombinant; tags: FLAG; chain copies: 10; label: 5'-Cy5 on strand 1; blunt. A general note: A gel shift assay detects complexes by their altered migration in electrophoresis.
Chain of Rad52-FLAG (P06778 whole entry): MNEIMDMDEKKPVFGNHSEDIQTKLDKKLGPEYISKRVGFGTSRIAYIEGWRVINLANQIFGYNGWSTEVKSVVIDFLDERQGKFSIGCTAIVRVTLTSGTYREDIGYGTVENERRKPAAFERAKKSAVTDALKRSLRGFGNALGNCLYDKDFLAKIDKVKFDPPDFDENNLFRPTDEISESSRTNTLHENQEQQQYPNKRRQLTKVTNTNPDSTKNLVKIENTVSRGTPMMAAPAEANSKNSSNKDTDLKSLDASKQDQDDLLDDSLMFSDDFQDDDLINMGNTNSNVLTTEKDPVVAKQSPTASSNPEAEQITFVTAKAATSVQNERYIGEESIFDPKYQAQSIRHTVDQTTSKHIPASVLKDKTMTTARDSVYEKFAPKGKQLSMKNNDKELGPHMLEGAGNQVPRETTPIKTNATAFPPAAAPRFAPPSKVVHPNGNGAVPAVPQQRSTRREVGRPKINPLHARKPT

B1: XV2 dsDNA (dsDNA)
DNA 1: TGGGTGAACCTGCAGGTGGGCAAAGATGTCCTAGCAATGTAATCGTCAAGCTTTATGCCGTT
DNA 2: AACGGCATAAAGCTTGACGATTACATTGCTAGGACATCTTTGCCCACCTGCAGGTTCACCCA
B1: the binding result is recorded as “binds”.
